Data published in publication PMC2889927.

Assays:
Experiment in all cases: flow cytometry on cells; PE-conjugated OCH-loaded human CD1d tetramers on human iNKT clones; 4°C, 45 min; mean fluorescence intensity
[1] = molecular target: TCR of the human iNKT clone 4C866, on the cells of the clone (human)
[2] = molecular target: TCR of the human iNKT clone 4C1369, on the cells of the clone (human)
[3] = molecular target: TCR of the human iNKT clone 4C1227, on the cells of the clone (human)
[4] = molecular target: TCR of the human iNKT clone DN347, on the cells of the clone (human)
[5] = molecular target: TCR of the human iNKT clone 4C862, on the cells of the clone (human)

B1: PE-conjugated human CD1d tetramer loaded with OCH (complex)
chain: EVPQRLFPLRCLQISSFANSSWTRTDGLAWLGELQTHSWSNDSDTVRSLKPWSQGTFSDQQWETLQHIFRVYRSSFTRDVKEFAKMLRLSYPLELQVSAGCEVHPGNASNNFFHVAFQGKDILSFQGTSWEPTQEAPLWVNLAIQVLNQDKWTRETVQWLLNGTCPQFVSGLLESGKSELKKQVKPKAWLSRGPSPGPGRLLLVCHVSGFYPKPVWVKWMRGEQEQQGTQPGDILPNADETWYLRATLDVVAGEAAGLSCRVKHSSLEGQDIVLYWGGSYTSMGLIALAVLACLLFLLIVGFTSRFKRQTSYQGVL
[1]
  OCH-tet (MFI): 866 MFI
[2]
  OCH-tet (MFI): 1370 MFI
[3]
  OCH-tet (MFI): 1230 MFI
[4]
  OCH-tet (MFI): 347 MFI
[5]
  OCH-tet (MFI): 862 MFI
